B1: CSTF3 (parent)
chain: YVPEKVKKAEKKLEENPYDLDAWS
B2: ZNF263 (parent)
chain: RTHTGEKPYKCTLCGENFSHRSNL

Variants of: B1
Test: protein stability index of a GFP-peptide fusion (GPS, HEK-293T) (PSI 1-6); higher = more stable
Conditions: c terminus: a fixed tail appended
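Also: lentivirally expressed fusions sorted by FACS into six bins by GFP to DsRed ratio, PSI derived from sequencing read proportions per bin multiplied by bin number.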

Protein stability index, by site and new letter:
W23: T 2.64 | L 2.93 | H 1.95 | N 3.51 | Q 1.79 | A 1.81 | M 3.05 | P 3.22 | K 1.84 | R 2.81 | E 1.28 | Y 1.77 | I 2.37 | S 2.6 | C 2.38 | F 3.27 | G 3.81 | V 2.38 | D 1.91
A22: V 3.55 | P 2.47 | Y 2.36 | Q 2.98 | T 1.88 | W 2.73 | S 2.38 | M 2.48 | K 1.36 | I 2.39 | R 2.65 | L 3.05 | N 2.26
S24: K 2.79 | V 2.85 | C 3.61 | A 3.55 | L 3.1 | G 3.98 | W 1.66 | Y 3.69 | P 2.56 | R 2.02 | M 2.15 | Q 2.23 | H 1.95 | D 2.21 | F 2.83 | N 2.26 | E 1.36 | I 1.86 | T 2.81

Variants of: B2
Test: as above
Conditions: c terminus: a fixed tail appended

Protein stability index of substitutions, site by site:
T4: W 1.75 | V 1.69 | F 2.05 | A 2.47 | Q 2.01 | D 1.87 | P 2.34 | C 2.04 | I 1.82 | L 1.79 | E 2.77 | K 2.43 | Y 2.43 | H 1.91 | N 2.1 | M 2.1 | R 3.78 | S 2.03 | G 2.02
R1: K 2.22 | I 2.12 | P 1.98 | H 3.08 | L 2.39 | C 3.43 | V 2.27 | M 1.38 | G 1.8 | A 2.03 | S 1.89 | N 1.69 | E 2.13 | W 1.99 | D 1.93 | T 1.99 | F 2.41 | Y 2.17 | Q 1.79
H3: S 2.18 | G 1.93 | Q 2.31 | T 1.93 | V 1.85 | R 2.58 | M 2.19 | A 2.27 | E 1.74 | I 2.58 | K 2.05 | L 2.35 | P 2 | C 1.61 | F 2.15 | Y 1.93 | W 1.41 | D 2.06 | N 1.97
G5: T 2.24 | Q 2.46 | P 1.88 | V 1.83 | L 1.88 | S 1.7 | I 2.06 | F 1.86 | M 2.13 | A 1.59 | R 2.2 | E 2.46 | N 2.3 | D 2.05 | W 2.4 | H 2.22 | Y 1.63 | C 3.14 | K 2.37
K7: D 2.02 | L 1.86 | H 2.19 | I 1.99 | E 2.12 | A 2.04 | P 1.62 | G 2.31 | N 1.9 | R 2.04 | C 3.39 | W 2.03 | S 2.2 | Q 1.71 | T 1.94 | V 2.37 | Y 1.73 | F 1.85 | M 1.97
Y9: G 1.6 | T 2.33 | P 2.04 | Q 1.84 | N 2.1 | R 2.14 | F 1.96 | S 2.38 | M 1.69 | W 1.72 | I 1.52 | C 3.37 | H 2.61 | L 1.79 | D 2.44 | A 2.15 | V 2.33 | K 2.45 | E 2.4
K10: P 2.03 | G 2.06 | F 1.76 | Y 1.93 | Q 2.36 | L 1.86 | N 1.91 | C 2.44 | M 1.97 | T 1.78 | R 1.81 | E 2.04 | V 2.05 | A 1.75 | H 2.2 | W 2.38 | S 1.58 | I 1.72 | D 2.68
P8: W 1.46 | F 1.38 | S 1.78 | A 2.1 | C 2.51 | R 1.99 | L 1.98 | G 2.44 | I 1.63 | T 1.9 | Q 2.09 | M 2.3 | D 2.44 | N 1.96 | H 2.06 | V 1.91 | K 2.06 | E 2.82 | Y 1.64
L13: I 2.44 | M 1.76 | K 2.18 | P 2.31 | T 2.57 | S 2.64 | G 2.42 | D 3.21 | A 2.18 | C 2.81 | V 2.14 | W 1.88 | E 3.3 | N 3.03 | R 1.56 | Y 2.04 | H 2.06 | Q 2.16 | F 2.2
C11: T 2.91 | F 2.06 | S 3.36 | D 3.87 | M 2.78 | E 3.97 | V 2.51 | R 2.81 | I 2.56 | G 3.59 | K 2.92 | W 2.04 | L 2.9 | N 3.16 | Q 3.24 | H 3.13 | P 3.02 | A 2.67 | Y 2.42
C14: K 3.48 | I 2.98 | M 3.43 | Y 2.52 | L 2.73 | H 2.84 | N 3.19 | F 2.66 | W 2.39 | A 3.07 | S 3.01 | T 3.37 | R 3.17 | D 2.96 | P 2.83 | E 4.05 | G 3.13 | V 3.3 | Q 3.45
T12: C 1.84 | M 1.43 | Y 1.5 | R 2.37 | W 2.22 | F 2.1 | K 1.98 | H 1.68 | N 2.44 | V 1.65 | L 2.23 | Q 2.04 | D 2.01 | P 2.4 | A 2.07 | S 1.87 | I 1.92 | G 1.74 | E 1.8
E6: A 2.15 | H 1.71 | M 2.37 | K 1.9 | F 1.62 | G 1.88 | S 2.39 | Y 2.64 | N 1.67 | T 2.26 | V 2.08 | R 2.34 | W 1.58 | D 2.37 | I 1.69 | P 2.68 | L 2.18 | C 2.44 | Q 2.34
T2: Q 2.02 | R 3.06 | E 1.76 | P 2.34 | M 1.97 | H 2.21 | S 2.1 | W 2.35 | A 2.02 | L 2.17 | N 2.28 | G 1.74 | F 1.73 | Y 1.45 | D 2 | I 1.98 | K 2.7 | C 2.07 | V 2.52
G15: C 1.59 | M 1.9 | P 2.57 | D 2.1 | R 1.75 | I 2.13 | T 1.79 | K 2.13 | A 1.68 | Q 2.15 | S 1.62 | L 1.97 | H 2.23 | E 1.76 | F 2.17 | V 1.57 | N 1.87
